Measurements: patent US20170073382 (Nomadogen Biotechnologies Inc., published 2017)

Molecular target: T1, synthetic TAL effector (RVG-LAMP-2B-NLS-TALE) (Artificial Sequence, UniProt P14727 SEQ:1-766)
T1 chain: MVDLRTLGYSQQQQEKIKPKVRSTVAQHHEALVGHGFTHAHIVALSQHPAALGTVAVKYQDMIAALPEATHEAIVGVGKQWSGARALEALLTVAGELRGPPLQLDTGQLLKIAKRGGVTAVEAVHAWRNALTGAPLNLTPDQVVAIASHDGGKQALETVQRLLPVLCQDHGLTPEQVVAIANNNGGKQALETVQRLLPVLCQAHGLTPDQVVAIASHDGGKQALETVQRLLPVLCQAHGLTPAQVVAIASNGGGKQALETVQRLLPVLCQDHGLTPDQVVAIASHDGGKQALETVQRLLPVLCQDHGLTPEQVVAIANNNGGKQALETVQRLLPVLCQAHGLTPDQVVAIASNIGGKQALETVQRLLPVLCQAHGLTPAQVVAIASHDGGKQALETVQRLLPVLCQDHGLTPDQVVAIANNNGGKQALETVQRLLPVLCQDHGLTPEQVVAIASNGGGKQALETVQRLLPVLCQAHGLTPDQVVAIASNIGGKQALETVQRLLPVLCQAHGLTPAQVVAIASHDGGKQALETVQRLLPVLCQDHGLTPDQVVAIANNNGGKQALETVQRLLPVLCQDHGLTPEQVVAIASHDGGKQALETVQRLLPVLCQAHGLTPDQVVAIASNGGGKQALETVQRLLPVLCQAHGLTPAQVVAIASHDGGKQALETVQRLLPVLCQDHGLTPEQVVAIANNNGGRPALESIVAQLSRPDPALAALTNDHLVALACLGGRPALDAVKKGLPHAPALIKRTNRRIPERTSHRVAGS
Test: cell_activity
Details: tags: fusion to C-terminus of RVG-LAMP-2B-NLS, expressed from pcDNA3.0 in HEK-293

B1: gfaABC1D-NeuroD1 plasmid with TAL effector binding site (dsDNA)
DNA 1: TCGCTCGACGTACGCTCG
DNA 2: CGAGCGTACGTCGAGCGA
- binding signal: 3 fold
